Key:
S. sanguinis = test: Release of antibiotics from self-assembling peptide gels: impact on bacterial growth (turbidity OD600); type: cell-based; details: antibiotic 150 mg/ml released from self-assembling peptide gels (15 mg/ml), aerobic, OD600 normalized to gel without antibiotic, over 120 hours
Protocol: (§1) The following figures and examples are supposed to illustrate and further explain, but not to limit the invention. Any references cited herein are herewith fully incorporated. • Fig. 1: Bacterial density after release of antibiotics (150 mg/ml) from self-assembling peptide gels (15 mg/ml), and the impact thereof to the growth of P. gingivalis (A-C) and S. sanguinis (D-F). Circles: metronidazol, stars: tetracycline, triangle: ciprofloxacin, squares: doxycycline hyclate; control: gel without API A/D P11-4 gel. B/E P11-13/14 gel. C/F P11-28/29 gel • Fig. 2: Cross section of demineralized tooth after incubation with polymeric P11-4. […] 100µl peptide / well, c= 20 mg/ml, in PBS, quantified with Qubit R Protein Assay Ref: Q33211. […] 100 µl peptide / well, c= 20 mg/ml, in PBS, quantified with Qubit R Protein Assay Ref: Q33211. […] Since NO3- are monovalent ions, and ionic strength of the solution was below 130 mM, P11-8 self-assembling was slowed down. […] The cell/SAP-gel/ dentin was then incubated for 8 days and visually assessed resulting in migration of up to 5 mm. […]
(§2) Furthermore 100 uL/well of a defined anaerobic P. gingivalis or aerobic S. anguines bacterial culture ([…] e.g. 990 µl BHI medium, 10 µl 10^8 CFU/ml bacteria suspension) were added onto the gels. Impact on growth was assessed by measuring turbidity at OD600 nm. […]

P. gingivalis = test: as above; type: cell-based; details: antibiotic 150 mg/ml released from self-assembling peptide gels (15 mg/ml), anaerobic, OD600 normalized to gel without antibiotic, over 120 hours
Protocol: as §1, §2

bacteria = test: Degradation of P11-4 peptide gel in presence of bacteria (Qubit Protein Assay); type: physicochemical; details: 100 µl peptide / well, c= 20 mg/ml, in PBS
Protocol: (§3) The following figures and examples are supposed to illustrate and further explain, but not to limit the invention. Any references cited herein are herewith fully incorporated. • Fig. 1: Bacterial density after release of antibiotics (150 mg/ml) from self-assembling peptide gels (15 mg/ml), and the impact thereof to the growth of P. gingivalis (A-C) and S. sanguinis (D-F). Circles: metronidazol, stars: tetracycline, triangle: ciprofloxacin, squares: doxycycline hyclate; control: gel without API A/D P11-4 gel. B/E P11-13/14 gel. C/F P11-28/29 gel • Fig. 2: Cross section of demineralized tooth after incubation with polymeric P11-4. […] 100µl peptide / well, c= 20 mg/ml, in PBS, quantified with Qubit R Protein Assay Ref: Q33211. […] 100 µl peptide / well, c= 20 mg/ml, in PBS, quantified with Qubit R Protein Assay Ref: Q33211. […] Since NO3- are monovalent ions, and ionic strength of the solution was below 130 mM, P11-8 self-assembling was slowed down. On the other hand self-assembling kinetic of P11-8 with DMEM and NaCl solution is very similar. […] Human Periodontal Ligament cells were placed in a cell pool (A) and the SAP gel (C) placed on the human dentin (B). The cell/SAP-gel/ dentin was then incubated for 8 days and visually assessed resulting in migration of up to 5 mm. Scale bar: 1 mm

[1] = Mechanical properties (storage modulus G') of gels in different ion and buffer systems; type: physicochemical; details: compared with Tris-NaCl
Protocol: as §3

[2] = Stability of P11 peptide gels in absence of cells or bacteria (peptide release into supernatant, Qubit Protein Assay); type: physicochemical; parameters: unit not given here; details: 7 days, 100µl peptide / well, c= 20 mg/ml, in PBS
Protocol: as §3

[3] = tested on: Human Periodontal Ligament cells; test: Cell migration on a periodontal ligament model (cell pool / SAP gel / human dentin); type: cell-based; details: 15 mg/ml gel on human dentin, 8 days of incubation, visually assessed
Protocol: as §3

Molecule	inhibition of bacterial growth (relative bacterial density) (S. sanguinis)	inhibition of bacterial growth (relative bacterial density) (P. gingivalis)	stability (time the peptide is stable) (bacteria)	storage modulus G' ([1]; gel formed in DMEM (pH 7.4, ionic strength 130 mM))	storage modulus G' ([1]; gel formed in artificial saliva (Tris 120 mM, Ca(NO3) 4 mM, KH2PO4 2.4 mM, pH 7.2), DMEM, Tris MgSO4)	release of peptide into the supernatant [2]	migration [3]
Cc1ncc([N+](=O)[O-])n1CCO [metronidazole]	low effectivity in most systems at this concentration	low effectivity in most systems at this concentration	–	–	–	–	–
QQRFEWEFEQQ [P11-4, self-assembling peptide]	–	–	more than 3 days	lower storage modulus	storage moduli between G'(NaCl and MgSO^4) was reached	less than one	up to 5 mm

From EP3284477A1, “COMPOSITION COMPRISING SELF-ASSEMBLING PEPTIDES FOR USE IN TREATMENT OF GINGIVITIS, PERIODONTITIS AND/OR PERI-IMPLANTITIS” (Credentis AG, priority 2016, dated 2018)
